Biological target: Recombinant human serum albumin (human, UniProt P02768 25-609)
Assay: SPR (BIACORE 3000), recombinant HSA immobilized on CM5 chip
Method: To measure the binding affinities of the ABD-fused insulin analogue proteins for albumin, a surface plasmon resonance (SPR, BIACORE 3000, GE healthcare) analysis method was used. Recombinant human serum albumin was immobilized on a CM5 chip by an amine coupling method, and the ABD or ABD-fused insulin analogues diluted to five or more concentrations were bound thereto, and the affinities thereof for the human serum albumin were measured.

Chain of Recombinant human serum albumin (P02768 25-609 limits assumed): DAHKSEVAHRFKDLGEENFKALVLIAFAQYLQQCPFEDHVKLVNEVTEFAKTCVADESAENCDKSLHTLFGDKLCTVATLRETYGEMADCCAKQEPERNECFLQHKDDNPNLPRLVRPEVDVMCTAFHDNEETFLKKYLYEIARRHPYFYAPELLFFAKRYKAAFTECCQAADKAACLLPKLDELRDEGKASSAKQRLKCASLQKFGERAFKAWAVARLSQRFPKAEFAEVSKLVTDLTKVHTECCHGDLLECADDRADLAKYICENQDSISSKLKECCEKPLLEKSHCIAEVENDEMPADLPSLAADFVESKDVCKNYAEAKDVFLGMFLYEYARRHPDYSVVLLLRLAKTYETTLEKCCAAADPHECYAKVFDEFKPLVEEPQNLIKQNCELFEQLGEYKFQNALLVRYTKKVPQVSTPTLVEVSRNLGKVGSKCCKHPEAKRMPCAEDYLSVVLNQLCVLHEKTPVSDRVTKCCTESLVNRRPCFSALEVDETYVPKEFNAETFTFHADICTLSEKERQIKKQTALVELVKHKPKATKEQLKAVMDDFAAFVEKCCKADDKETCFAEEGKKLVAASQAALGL

LAEAKEAANAELDSYGVSDFYKKLIDKAKTVEGVEALKDAILAALP (designed binder) [albumin-binding domain (ABD)]
Kd: 7.29 pM
koff: 2.41e-05 s⁻¹
kon: 5.93e+06 M⁻¹ s⁻¹
